Measurements reported in patent US20100221179A1.
Where a chain is given by its changes, count along the chain named.

T1: recombinant human IL-1α (human) (UniProt P01583)
T1 sequence: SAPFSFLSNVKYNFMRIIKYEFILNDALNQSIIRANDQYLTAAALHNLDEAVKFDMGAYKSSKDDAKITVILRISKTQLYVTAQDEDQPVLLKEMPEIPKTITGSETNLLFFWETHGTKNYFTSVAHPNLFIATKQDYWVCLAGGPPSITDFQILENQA

B1: anti-human IL-1α monoclonal antibody 3D12 (antibody, from a related filing, V domains shown)
VH: QIQLVQSGPELKKPGETVKISCKASGYTFRNYGMNWVKQAPGKDLKRMAWINTYTGESTYADDFKGRFAFSLETSASTAYLQINNLKNEDTATYFCARGIYYYGSSYAMDYWGQGTSVTVSS
VL: IQMTQTTSSLSASLGDRVTISCRASQDISNCLNWYQQKPDGTVKLLIYYTSRLHSGVPSRFSGSGSGTDYSLTISNLEQEDIATYFCQQGKTLPYAFGGGTKLEINR
B2: humanized anti-human IL-1α antibody H3D12.8 (antibody, from a related filing, human IgG1, V domains shown)
VH: EIQLVQSGSELKKPGASVKVSCKASGYTFTNYGMNWVRQAPGQDLERMAWINTYTGESTYADDFKGRFVFSLDTSVSTAYLQISSLKAEDTAVYFCARGIYYYGSSYAMDYWGQGTTVTVSS
VL: DIQMTQSPSSLSASVGDRVTITCRASQDISNCLNWYQQKPGKTPKLLIYYTSRLHSGVPSRFSGSGSGTDYTFTISSLQPEDIATYFCQQGKTLPYAFGQGTKLEIK
B3: humanized anti-human IL-1α antibody H3D12.r10 (antibody, from a related filing, human IgG1, V domains shown)
VH: EIQLVQSGAEVKKPGASVKVSCKASGYTFAHYGMNWVRQAPGQGLEWMGWINTYTGQSTYADDFKGRFTFTLDTSTSTAYMELSSLRSEDTAVYYCARGIYYFGSNYAMDYWGQGTTVTVSS
VL: B2 VL with C32M, H55R, T93K, L94P, A97T
B4: humanized anti-human IL-1α antibody H3D12.16 (antibody, from a related filing, human IgG1, V domains shown)
VH: B3 VH with A30T, H31N, G44D, W47R, G49A, Q57E, Y95F, F103Y, N106S
VL: B2 VL
B5: humanized anti-human IL-1α antibody H3D12.r16 (antibody, from a related filing, human IgG1, V domains shown)
VH: B3 VH with I2V, A30K, H31Y, W47R, F68V, G99D, F103Y, N106D, Y107F
VL: B2 VL with C32M, T43A, H55K, S56P, L94A, A97T
B6: humanized anti-human IL-1α antibody H3D12.r37 (antibody, from a related filing, human IgG1, V domains shown)
VH: B3 VH with A30K, H31Y, W47R, Q57E, T59R, F68V, G99D, N106D
VL: B2 VL with C32R, T43A, T51A, H55K, S56P, K92N, L94P, A97T

Each binder was assayed against T1, recombinant human IL-1α (human) (assay: SPR (Biacore), antibody captured, IL-1α in solution).

Kd [pM] | Binder
1340 | B1
1350 | B2
32 | B3
2090 | B4
31 | B5
28 | B6

These binders were tested against T1, recombinant human IL-1α (human) (assay: cell-based or functional assay).

Neutralization Potency (IC50, pM), MRC-5 bioassay (IL-8 production) [pM] | Binder
1880 | B1
1950 | B2
0.6 | B3
1360 | B4
0.6 | B5
1.4 | B6
